Experimental data taken from the supplement of paper PMC10126150.
± gives the standard deviation of the averaged measurements.

Test system: ATP
Experiment: switch fluorescence ratio, 500 uM ATP over buffer (Cy3 cluster intensity, sum of 5 cycles each) (fold (ratio)); higher = stronger signal-on switching upon ATP binding; sequences stand for … in TCGTCGGCAGCGTCAGATGTGTATAAGAGACAGTTTTTTTTTTTTTTTTTTTTTTTTT…TC
Conditions: aptamer strand: ATP DNA aptamer (quencher-CACCTGGGGGAGTATTGCGGAGGAAGG + anchor), 100 nM annealed; ATP concentration: 500 uM
Summary of the method: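 Clusters with intensities outside 100-1000 RFU were excluded. The remaining Cy3-labelled switching-strand clusters on a modified Illumina MiSeq flow-cell had been annealed to 100 nM quencher-labelled ATP aptamer and imaged in selection buffer, then after 15 min with 500 uM ATP at 22 °C, for five cycles separated by NaOH stripping and re-annealing. The fluorescence ratio, averaged per switch-domain sequence, is each cluster's summed target-cycle Cy3 intensity over its summed buffer-cycle Cy3 intensity.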
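Note: ATP exposure 15 min at 22 °C before imaging.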

CAGGTCATTA
switch fluorescence ratio: 0.9784 ± 0.0076

CAGGTGGTCA
switch fluorescence ratio: 1 ± 0.021

CAGGTGTGGA
switch fluorescence ratio: 1.044 ± 0.0053

CAGGTTAGGT
switch fluorescence ratio: 1.004 ± 0.01

CAGGTTATGG
switch fluorescence ratio: 0.958 ± 0.042

CAGGTTGCAC
switch fluorescence ratio: 0.9894 ± 0.0069

CAGGTTTTGT
switch fluorescence ratio: 1.01 ± 0.036

CAGTAAGTGG
switch fluorescence ratio: 0.999 ± 0.02

CAGTAATTTT
switch fluorescence ratio: 0.999 ± 0.013

CAGTACGGGG
switch fluorescence ratio: 1 ± 0.01

CAGTAGCTGT
switch fluorescence ratio: 1.204 ± 0.0022

CAGTCCGGGA
switch fluorescence ratio: 1.101 ± 0.0079

CAGTCTGGGG
switch fluorescence ratio: 0.964 ± 0.012

CAGTCTGTGT
switch fluorescence ratio: 0.9921 ± 0.0075

CAGTGAGGTA
switch fluorescence ratio: 0.984 ± 0.023

CAGTGATTC
switch fluorescence ratio: 1.26 ± 0.35

CAGTGGAGTG
switch fluorescence ratio: 0.98561 ± 8.7e-05

CAGTGGGGAC
switch fluorescence ratio: 1.03 ± 0.055

CAGTGGGGCT
switch fluorescence ratio: 1.016 ± 0.0057

CAGTGGTCGG
switch fluorescence ratio: 1 ± 0.038

CAGTGTACGG
switch fluorescence ratio: 1.04 ± 0.013

CAGTGTCGGG
switch fluorescence ratio: 0.9984 ± 0.0085

CAGTGTCTGC
switch fluorescence ratio: 0.9726 ± 0.0016

CAGTGTGGTT
switch fluorescence ratio: 1.11 ± 0.24

CAGTGTGTGG
switch fluorescence ratio: 0.9696 ± 0.0024

CAGTTAGACA
switch fluorescence ratio: 0.99 ± 0.081

CAGTTATGAC
switch fluorescence ratio: 0.987 ± 0.011

CAGTTCACCT
switch fluorescence ratio: 1.082 ± 0.0063

CAGTTCGTTT
switch fluorescence ratio: 0.9845 ± 0.0063

CAGTTGGGAC
switch fluorescence ratio: 1 ± 0.054

CAGTTGTGTG
switch fluorescence ratio: 0.994 ± 0.034

CAGTTGTTTT
switch fluorescence ratio: 1.02 ± 0.034

CAGTTTAATG
switch fluorescence ratio: 1.014 ± 0.0015

CAGTTTAGCT
switch fluorescence ratio: 1.02 ± 0.015

CAGTTTGTGG
switch fluorescence ratio: 0.9917 ± 0.0018

CAGTTTGTTG
switch fluorescence ratio: 0.973 ± 0.037

CAGTTTTACA
switch fluorescence ratio: 1.05 ± 0.016

CATAAAAACT
switch fluorescence ratio: 1.06 ± 0.017

CATAAGGGGA
switch fluorescence ratio: 0.994 ± 0.038

CATACAAGGG
switch fluorescence ratio: 1.019 ± 0.0029

CATACAATGC
switch fluorescence ratio: 2.02 ± 0.11

CATACACATT
switch fluorescence ratio: 1.06 ± 0.048

CATACCCTTG
switch fluorescence ratio: 1.01 ± 0.037

CATACGAAGT
switch fluorescence ratio: 1.02 ± 0.068

CATACGGGTA
switch fluorescence ratio: 1.042 ± 0.00018

CATACTAACG
switch fluorescence ratio: 1.33 ± 0.062

CATAGATGGA
switch fluorescence ratio: 1.03 ± 0.036

CATAGATGGG
switch fluorescence ratio: 1.01 ± 0.015

CATAGCAAGG
switch fluorescence ratio: 1.66 ± 0.099

CATAGGAACG
switch fluorescence ratio: 0.955 ± 0.045

CATAGGATGG
switch fluorescence ratio: 0.947 ± 0.025

CATAGGGGAC
switch fluorescence ratio: 0.978 ± 0.066

CATAGGGGTA
switch fluorescence ratio: 1.01 ± 0.04

CATAGGGTTT
switch fluorescence ratio: 1.04 ± 0.047

CATAGGTACA
switch fluorescence ratio: 1.089 ± 0.0035

CATAGGTCGG
switch fluorescence ratio: 0.974 ± 0.021

CATAGGTTAT
switch fluorescence ratio: 0.993 ± 0.048

CATATACATT
switch fluorescence ratio: 1.056 ± 0.0039

CATATATTCT
switch fluorescence ratio: 0.977 ± 0.033

CATATGATCG
switch fluorescence ratio: 0.961 ± 0.025

CATATGGCTT
switch fluorescence ratio: 1.02 ± 0.023

CATATGGGGA
switch fluorescence ratio: 0.982 ± 0.011

CATATTGAAT
switch fluorescence ratio: 1.01 ± 0.02

CATATTGGGA
switch fluorescence ratio: 0.996 ± 0.032

CATCAAAAAT
switch fluorescence ratio: 1.29 ± 0.3

CATCAAGGGA
switch fluorescence ratio: 1.02 ± 0.045

CATCAGTTGA
switch fluorescence ratio: 1.02 ± 0.018

CATCCACGTA
switch fluorescence ratio: 1.2 ± 0.083

CATCCTTGGA
switch fluorescence ratio: 0.996 ± 0.012

CATCGAGGAC
switch fluorescence ratio: 1.06 ± 0.072

CATCGATTGC
switch fluorescence ratio: 1.03 ± 0.013

CATCGGAGGA
switch fluorescence ratio: 1.02 ± 0.025

CATCGGGGGG
switch fluorescence ratio: 1 ± 0.02

CATCGGTATA
switch fluorescence ratio: 1.06 ± 0.017

CATCTAAGGC
switch fluorescence ratio: 1.07 ± 0.049

CATCTAGTGC
switch fluorescence ratio: 1.045 ± 0.0031

CATCTATGGT
switch fluorescence ratio: 0.992 ± 0.01

CATCTCCGGT
switch fluorescence ratio: 1.13 ± 0.0087

CATCTGATGC
switch fluorescence ratio: 1.08 ± 0.015

CATCTGATTA
switch fluorescence ratio: 0.98832 ± 0.00039

CATCTTAGCT
switch fluorescence ratio: 1.035 ± 0.0054

CATCTTTGAA
switch fluorescence ratio: 1.05 ± 0.017

CATGAAAGAC
switch fluorescence ratio: 1.05 ± 0.041

CATGATAGTT
switch fluorescence ratio: 0.997 ± 0.017

CATGATTGCG
switch fluorescence ratio: 0.985 ± 0.024

CATGATTTGA
switch fluorescence ratio: 1.011 ± 0.0092

CATGCCATCC
switch fluorescence ratio: 1.16 ± 0.051

CATGCCGGGA
switch fluorescence ratio: 1.22 ± 0.38

CATGCGTCGA
switch fluorescence ratio: 1.044 ± 0.0035

CATGCTTGGT
switch fluorescence ratio: 1.013 ± 0.00025

CATGGAGGGG
switch fluorescence ratio: 0.9617 ± 0.0061

CATGGATACA
switch fluorescence ratio: 0.978 ± 0.052

CATGGATAGG
switch fluorescence ratio: 1.011 ± 0.008

CATGGCCACC
switch fluorescence ratio: 1.015 ± 0.0078

CATGGCTAGT
switch fluorescence ratio: 1 ± 0.011

CATGGGAAGA
switch fluorescence ratio: 0.9755 ± 0.004

CATGGGATGC
switch fluorescence ratio: 1.08 ± 0.1

CATGGGTCCT
switch fluorescence ratio: 1.04 ± 0.033

CATGGGTGTG
switch fluorescence ratio: 0.993 ± 0.042

CATGGTAGAG
switch fluorescence ratio: 0.975 ± 0.034

CATGGTGCCC
switch fluorescence ratio: 1.03 ± 0.026

CATGGTGGCG
switch fluorescence ratio: 1.01 ± 0.022

CATGGTGGGA
switch fluorescence ratio: 0.969 ± 0.017

CATGTAACGC
switch fluorescence ratio: 1.04 ± 0.066

CATGTAATTT
switch fluorescence ratio: 0.966 ± 0.034

CATGTAGCCG
switch fluorescence ratio: 1.01 ± 0.061

CATGTATGCT
switch fluorescence ratio: 1 ± 0.014

CATGTATTTT
switch fluorescence ratio: 0.991 ± 0.041

CATGTCAGGA
switch fluorescence ratio: 1.02 ± 0.018

CATGTCTGTA
switch fluorescence ratio: 1

CATGTGATTA
switch fluorescence ratio: 1.007 ± 0.01

CATGTGGCGG
switch fluorescence ratio: 0.995 ± 0.0016

CATGTGGGTG
switch fluorescence ratio: 1 ± 0.047

CATGTGTGAG
switch fluorescence ratio: 0.949 ± 0.026

CATGTGTGGT
switch fluorescence ratio: 1.004 ± 0.0078

CATGTGTTGC
switch fluorescence ratio: 0.987 ± 0.012

CATGTTAGTC
switch fluorescence ratio: 1.01 ± 0.012

CATGTTATCC
switch fluorescence ratio: 1.01 ± 0.034

CATGTTGGTA
switch fluorescence ratio: 0.9946 ± 0.0076

CATGTTTCTG
switch fluorescence ratio: 0.9927 ± 0.0078

CATGTTTTGG
switch fluorescence ratio: 0.9836 ± 0.0043

CATGTTTTTG
switch fluorescence ratio: 1 ± 0.025

CATTAAAGAT
switch fluorescence ratio: 1.01 ± 0.077

CATTAAAGCC
switch fluorescence ratio: 0.968 ± 0.025

CATTAGAGGT
switch fluorescence ratio: 0.995 ± 0.014

CATTAGTAGC
switch fluorescence ratio: 1.02 ± 0.05

CATTATATCG
switch fluorescence ratio: 1 ± 0.023

CATTATGCTT
switch fluorescence ratio: 0.9864 ± 0.0014

CATTATGGAG
switch fluorescence ratio: 1 ± 0.047

CATTCAGTCG
switch fluorescence ratio: 1 ± 0.026

CATTCAGTTC
switch fluorescence ratio: 1 ± 0.058

CATTCATGCT
switch fluorescence ratio: 0.971 ± 0.033

CATTCGGATG
switch fluorescence ratio: 1.01 ± 0.055

CATTGAGTAG
switch fluorescence ratio: 1.01 ± 0.024

CATTGAGTCG
switch fluorescence ratio: 0.98 ± 0.052

CATTGCAA
switch fluorescence ratio: 1 ± 0.085

CATTGCAAAC
switch fluorescence ratio: 5.13 ± 0.53

CATTGCTCTG
switch fluorescence ratio: 1.02 ± 0.026

CATTGGGGGG
switch fluorescence ratio: 0.99 ± 0.038

CATTGGTAGG
switch fluorescence ratio: 0.987 ± 0.019

CATTGGTTTG
switch fluorescence ratio: 1.01 ± 0.048

CATTGTCTTC
switch fluorescence ratio: 1.05 ± 0.055

CATTGTGGGA
switch fluorescence ratio: 0.997 ± 0.023

CATTGTGGGC
switch fluorescence ratio: 0.9621 ± 0.0034

CATTTAAAGC
switch fluorescence ratio: 1 ± 0.018

CATTTAGCAC
switch fluorescence ratio: 1.131 ± 0.0021

CATTTAGCTG
switch fluorescence ratio: 0.9875 ± 0.0055

CATTTAGGGC
switch fluorescence ratio: 1.02 ± 0.054

CATTTAGGGG
switch fluorescence ratio: 0.995 ± 0.036

CATTTAGGTA
switch fluorescence ratio: 1.001 ± 0.0078

CATTTATAGT
switch fluorescence ratio: 0.9799 ± 0.0083

CATTTATGTG
switch fluorescence ratio: 0.978 ± 0.021

CATTTCAACC
switch fluorescence ratio: 1.019 ± 0.0021

CATTTGAGGT
switch fluorescence ratio: 1 ± 0.027

CATTTGATCG
switch fluorescence ratio: 1.03 ± 0.013

CATTTGCGCA
switch fluorescence ratio: 1.022 ± 0.0084

CATTTGGATT
switch fluorescence ratio: 1.04 ± 0.012
